Reference: publication PMC9888390 (2023)

Target: Recombinant HSV-1 glycoprotein B, soluble ectodomain (HSV-1)
Experiment: Luminex binding assay

B1: BMPC-23 recombinant mouse IgG (antibody, V domains shown)
VH: QVQLQQSGPELVKPGASVKLSCKASGYSFTTYDINWVKERPGQGLEWIGWIYPREGSTNYNEKFRGKATLTADTSSSTAYMELHSLTSEDSAVYFCATYGSSRYYTMDYWGQGTSVTVSS
VL: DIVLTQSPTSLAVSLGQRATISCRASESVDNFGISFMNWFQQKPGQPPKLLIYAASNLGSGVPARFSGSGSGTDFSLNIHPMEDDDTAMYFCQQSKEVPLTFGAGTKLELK
B1 showed an EC50 of 3.5 ng/mL.
